Data published in US20170298425.

B1: TlpA-CC WT (TlpA coiled-coil domain, wild type) (protein)
chain: MRPATYEPEQIIEAGLALQAEGRNITGFALRNQVGGGNPTRLRQIWDEYQASQSTVVTEPVAELPVEVAEEVKAVSAALSERITQLATELNDKAVRAAERRVAEVTRAAGEQTAQAERELADAAQTVDDLEEKLDELQDRYDSLTLALESERSLRQQHDVEMAQLKERLAAAEENTRQREERYQEQKTVLQDALNAEQAQHKNTREDLQKRLEQISAEANARTEELKSERDKVNTLLTRLESQENALASERQQHLATRETLQQRLEQAIADTQARAGEIALERDRVSSLTARLESQEKASSEQLVRMGSEIASLTERCTQLENQRDDARLETMGEKETVAALRGEAEALKRQNQSLMAALSGNKQTGGQNA
B2: TlpA-CC-DED (TlpA coiled-coil domain with Asp-Glu-Asp appended to the C-terminus) (protein)
chain: MRPATYEPEQIIEAGLALQAEGRNITGFALRNQVGGGNPTRLRQIWDEYQASQSTVVTEPVAELPVEVAEEVKAVSAALSERITQLATELNDKAVRAAERRVAEVTRAAGEQTAQAERELADAAQTVDDLEEKLDELQDRYDSLTLALESERSLRQQHDVEMAQLKERLAAAEENTRQREERYQEQKTVLQDALNAEQAQHKNTREDLQKRLEQISAEANARTEELKSERDKVNTLLTRLESQENALASERQQHLATRETLQQRLEQAIADTQARAGEIALERDRVSSLTARLESQEKASSEQLVRMGSEIASLTERCTQLENQRDDARLETMGEKETVAALRGEAEALKRQNQSLMAALSGNKQTGGQNADED
B3: DED-TlpA-CC (TlpA coiled-coil domain with Asp-Glu-Asp appended to the N-terminus) (protein)
chain: DEDMRPATYEPEQIIEAGLALQAEGRNITGFALRNQVGGGNPTRLRQIWDEYQASQSTVVTEPVAELPVEVAEEVKAVSAALSERITQLATELNDKAVRAAERRVAEVTRAAGEQTAQAERELADAAQTVDDLEEKLDELQDRYDSLTLALESERSLRQQHDVEMAQLKERLAAAEENTRQREERYQEQKTVLQDALNAEQAQHKNTREDLQKRLEQISAEANARTEELKSERDKVNTLLTRLESQENALASERQQHLATRETLQQRLEQAIADTQARAGEIALERDRVSSLTARLESQEKASSEQLVRMGSEIASLTERCTQLENQRDDARLETMGEKETVAALRGEAEALKRQNQSLMAALSGNKQTGGQNA

Row | Protein | Hill coefficient (fit of CD melting curve at 222 nm, 25-50 C)
1 | B1 | 19.1
2 | B2 | 16.7
3 | B3 | 24.7
